Data from US20090297524A1 (DOMANTIS, published 2009).
Substitutions are numbered along the chain they refer to.

T1: Recombinant human CD40L (human, UniProt P29965 108-261, limits assumed)
T1 construct: also called CD40 ligand
T1 sequence (looked up): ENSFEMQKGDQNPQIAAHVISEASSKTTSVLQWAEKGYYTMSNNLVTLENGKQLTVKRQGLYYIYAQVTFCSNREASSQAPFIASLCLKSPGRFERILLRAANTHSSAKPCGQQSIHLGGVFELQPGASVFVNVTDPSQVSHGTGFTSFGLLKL

B1: DOM.95 (other)
VH: EVQLLESGGGLVQPGGSLRLSCAASGFTFREYDMLWVRQAPGKGLEWVSTIVGDGNGTYYADSVKGRFTISRDNSKNTLYLQMNSLRAEDTAVYYCAKQDRQFDYWGQGTLVTVSS
notes: VH dAb
B2: DOM.90 (other)
VL: DIQMTQSPSSLSASVGDRVTITCRASQSISDALFWYQQKPGKAPRLLIYYGSVLQSGVPSRFSGSGSGTDFTLTISSLQPEDFATYYCQQRFQEPVTFGQGTKVEIKR
notes: Vk dAb
B3: DOM.92 (other)
VH: EVQLLESGGGLVQPGGSLRLSCAASGFTFVDYPMGWVRQAPGKGLEWVSTISTGGFSTYYADSVKGRFTISRDNSKNTLYLQMNSLRAEDTAVYYCAKARYYYLSQIKNFDYWGQGTLVTVSS
notes: VH dAb
B4: DOM-15 (other)
VH: EVQLLESGGGLVQPGGSLRLSCAASGFTFEEYVMSWVRQAPGKGLEWVSTISPIGLTTYYADSVKGRFTISRDNSKNTLYLQMNSLRAEDTAVYYCAEFPLIILPDFDYWGQGTLVTVSS
notes: VH dAb
B5: DOM-36 (other)
VL: DIQMTQSPSSLSASVGDRVTITCRASQDIDHNLEWYQQKPGKAPKLLIYDSSMLQSGVPSRFSGSGSGTDFTLTISSLQPEDFATYYCQQYHSIPVTFGQGTKVEIKR
notes: Vk dAb
B6: DOM.105 (other)
VL: DIQMTQSPSSLSASVGDRVTITCRASQAIGHRLRWYQQKPGKAPKLLIYHRSKLQSGVPSRFSGSGSGTDFTLTISSLQPEDFATYYCQQSYARPVTFGQGTKVEIKR
notes: Vk dAb
B7: DOM-37 (other)
VL: B5 VL with D28Q, D30E, H31T, S51G, M53W, I94L, V96A
notes: Vk dAb
B8: DOM.108 (other)
VL: B6 VL with S91R, Y92A, A93V, V96F
notes: Vk dAb
B9: DOM.156 (other)
VL: B5 VL with D30M, H31D, D50A, S51A, M53W, S93K, I94L
notes: Vk dAb
B10: DOM.162 (other)
VL: B5 VL with D30S, H31D, N32D, D50N, M53F, T69A, I94L
notes: Vk dAb
B11: DOM-116 (other)
VL: B6 VL with A28P, H31P, R32D, R34L, H50Q, R51T, K53I, S91Y, Y92W, R94F
notes: Vk dAb
B12: DOM.150 (other)
VL: DIQMTQSPSSLSASVGDRVTITCRASQGIGTDLNWYQQKPGKAPKLLIYMGSYLQSGVPSRFSGSGSGTDFTLTISSLQPEDFATYYCQQIYSFPITFGQGTKVEIKR
notes: Vk dAb
B13: DOM-38 (other)
VL: B5 VL with D30G, H31N, K45R, D50H, S51G, M53W, H92D, S93F, I94N, V96T
notes: Vk dAb
B14: DOM.155 (other)
VL: B5 VL with D30G, H31M, N32D, K39I, A43V, S51A, M53Y, S93K, I94L, V96A
notes: Vk dAb
B15: DOM.147 (other)
VL: B5 VL with D28E, D30E, H31T, M53H, S93Q, I94N, V96P
notes: Vk dAb
B16: DOM.163 (other)
VL: B5 VL with D30E, H31G, M53Q, S93H, I94L, V96T
notes: Vk dAb
B17: DOM.158 (other)
VL: DIQMTQSPSSLSASVGDRVTITCRASQPIDEDLEWYQQKPGNAPKLLIYSASYLQSGVPSRFSGSGSGTDFTLTISRLQPEDFATYYCQQYHLLPATFGQGTKVEIKR
notes: Vk dAb
B18: DOM-35 (other)
VL: B5 VL with D28F, D30G, H31D, N32S, E34S, D50F, M53I, H92M, S93D, V96I
notes: Vk dAb
B19: DOM.161 (other)
VL: B5 VL with H31S, N32D, K45M, D50S, M53D, I94L
notes: Vk dAb
B20: DOM-52 (other)
VL: B12 VL with G28D, T31S, D32A, N34R, M50L, Y53D, I91T, Y92Q, S93Y, I96T
notes: Vk dAb
B21: DOM.109 (other)
VL: B6 VL with S91T, A93Y, V96L
notes: Vk dAb
B22: DOM.89 (other)
VL: DIQMTQSPASLSASVGDRVTITCRASQDIDPMLRWYQQKPGKAPKLLIYAGSILQSGVPSRFSGSGSGTDFTLTISSLQPEDFATYYCQQTLVTPYTFGQGTKVEIKR
notes: Vk dAb
B23: DOM.143 (other)
VL: B5 VL with D28T, D30E, H31T, M53Q, F83L, S93G, I94Y, V96T
notes: Vk dAb
B24: DOM.91 (other)
VL: B12 VL with G28Q, G30S, T31D, D32E, M50A, G51V, Y53I, I91W, Y92L, I96S
notes: Vk dAb
B25: DOM-49 (other)
VL: B12 VL with I2V, G28W, T31D, D32S, N34S, M50F, I91Y, Y92M, F94A, I96S
notes: Vk dAb
B26: DOM.164 (other)
VL: B5 VL with D28S, H31T, N32D, S51G, M53W, H92R, S93W
notes: Vk dAb
B27: DOM.101 (other)
VL: B6 VL with S91V, Y92A, A93L, R94F, V96Y
notes: Vk dAb
B28: DOM-86 (other)
VL: B5 VL with D30G, H31D, N32A, E34F, D50Y, S65G, Y91R, I94T, V96A
notes: Vk dAb
B29: DOM-47 (other)
VL: B12 VL with G28W, T31D, D32S, N34S, M50F, I91Y, Y92L, S93H, F94T, I96S
notes: Vk dAb
B30: DOM.160 (other)
VL: B5 VL with D30E, H31A, N32D, D50H, M53E, S93M, I94S
notes: Vk dAb
B31: DOM.106 (other)
VL: B6 VL with A28S, G30N, R34Y, K53R, S91Y, Y92K, A93V, V96N
notes: Vk dAb
B32: DOM.159 (other)
VL: B5 VL with T5I, D30N, H31E, N32D, D50N, S51A, E81K, S93T, I94N, V96T
notes: Vk dAb
B33: DOM.175 (other)
VL: DIQMTQSPSSLSASVGDRVTITCRASQPISGGLRWYQQKPGKAPKLLIYSTSMLQSGVPSRFSGSGSGTDFTLTISSLQPEDFATYYCQQLYSAPYTFGQGTKVEIKR
notes: Vk dAb
B34: DOM.154 (other)
VL: DIQMTQSPSSLSASVGDRVTITCRASQDIEEMLHWYQQKPGKAPKLLIYFGSLLQSGVPSRFSGSRSGTDFTLTISSLQPEDFATYYCQQHHTRPYTFGQGTKVEIKR
notes: Vk dAb
B35: DOM.142 (other)
VL: DIQMTQSPSSLSASVGDRVTITCRASQFIGDSLSWYQQKPGKAPKLLIYFSSILQSGVPSRFSGSGSGTDFTLTISSLQPEDFATYYCQQYHTSPTTFGRGTKVKIKR
notes: Vk dAb
B36: DOM.110 (other)
VL: B22 VL with L92S, V93I, T94R
notes: Vk dAb
B37: DOM.157 (other)
VL: B17 VL with P28N, D30G, Y53H, R77S, H92S, L93S, L94Y, A96V
notes: Vk dAb
B38: DOM.107 (other)
VL: B6 VL with S91T, A93S, R94S, V96H
notes: Vk dAb
B39: DOM.103 (other)
VL: B6 VL with S91V, Y92R, R94V, V96Y
notes: Vk dAb
B40: DOM.104 (other)
VL: B6 VL with S91V, Y92R, A93F, R94S, V96Y
notes: Vk dAb
B41: DOM.144 (other)
VL: B5 VL with D28M, H31Q, N32D, D50N, S51A, M53W, S93G, I94Y, V96I
notes: Vk dAb
B42: DOM.93 (other)
VH: EVQLLESGGGLVQPGGSLRLSCAASGFTFDIYGMTWVRQAPGKGLEWVSSISPLGLVTYYADPVKGRFTISRDNSKNTLYLQMNSLRAEDTAVYYCAKLKEHGDVPFDYWGQGTLVTVSS
notes: VH dAb
B43: DOM.94 (other)
VH: EVQLLESGGGLVQPGGSLRLSCAASGFTFELYPMSWVRQAPGKGLEWVSTISPTGLLTYYADSVKGRFTISRDNSKNTLYLQMNSLRAEDTAVYYCAKFKRSGKTDDTNFDYWGQGTLVTVSS
notes: VH dAb

biological target: T1, Recombinant human CD40L; assay: CD40L/CD40-Fc receptor binding assay;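 further: plate assay with coated human CD40-Fc, bound ligand detected via HRP anti-biotin antibody and TMB, OD at 450 nm, lower signal indicates stronger inhibition by dAb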

Row | binding result | Binder
1 | binds | B1
2 | binds | B2
3 | binds | B3
4 | binds | B4
5 | binds | B5
6 | binds | B6
7 | binds | B7
8 | binds | B8
9 | binds | B9
10 | binds | B10
11 | binds | B11
12 | binds | B12
13 | binds | B13
14 | binds | B14
15 | binds | B15
16 | binds | B16
17 | binds | B17
18 | binds | B18
19 | binds | B19
20 | binds | B20
21 | binds | B21
22 | binds | B22

Row | binding result | Binder
23 | binds | B23
24 | binds | B24
25 | binds | B25
26 | binds | B26
27 | binds | B27
28 | binds | B28
29 | binds | B29
30 | binds | B30
31 | binds | B31
32 | binds | B32
33 | binds | B33
34 | binds | B34
35 | binds | B35
36 | binds | B36
37 | binds | B37
38 | binds | B38
39 | binds | B39
40 | binds | B40
41 | binds | B41
42 | binds | B42
43 | binds | B43
